# Measurements published in patent US10328148B2, “Protein drug formulations and packages” (Purdue Research Foundation, priority 2010, dated 2019).
# B1: Protein G: free Protein G, immunoglobulin-binding protein used as polyamino acid ligand (protein)
# chain: TYKLILNGKTLKGETTTEAVDAATAEKVFKQYANDNGVDGEWTYDDATKTFTVTEKPEVIDASELTPAVTTYKLVINGKTLKGETTTEAVDAATAEKVFKQYANDNGVDGEWTYDDATKTFTVTEKPEVIDASELTPAVTTYKLVINGKTLKGETTTKAVDAETAEKAFKQYANDNGVDGVWTYDDATKTFTVTE
# Tested on: IgG
# Experiment: HP-SEC of IgG with free Protein A or Protein G: complex formation and agitation-induced aggregation
# Type: physicochemical
# Conditions: IgG:Protein A or G ratio 1:4, RT 2 h
# Method: Effect of proteins A and G on aggregation of IgG. High performance size exclusion chromatography (HP-SEC) is used to verify that IgG binds with Protein A or Protein G completely. 50 µL aliquots are injected to a Tosoh TSK G 13000 SWXL Gel 3000 column ([…]×7.8 mm) and separated at a flow rate of 0.5 mL/min. The mobile phase contains 50 mM potassium phosphate and 100 mM K2SO4 at pH 7.1. The relative percentage of IgG monomer and dimer are calculated in triplicate as a percentage of the total chromatographic peak area at 280 nm. Fresh IgG is incubated with free Protein A or free Protein G, respectively, at IgG:Protein A or G ratio of 1:4 at RT for 2 h before being subjected to agitation. […] Effect of agitation of protein A and protein G complexes of IgG. The prior Example 1 is repeated, subjecting the IgG+Protein A or IgG+Protein G to agitation on a shaker at room temperature for 44 h.
molecule,measurement,value
B1,Complex formation with IgG by HP-SEC,formation of IgG-Protein A and IgG-Protein G complexes
